Assay results reported in patent publication US20160129078A1, “Rhomboid Proteins and Uses Thereof” (Queen's University at Kingston, priority 2014, published 2016).

B1: At1g74130 S: 6/7 S-form splice variant of Arabidopsis At1g74130 rhomboid protein (protein, listed as Arabidopsis thaliana)
chain: MHAIFCRRVAVGCSSPQLTKLVTKQASQSRHSLSHLLPFDLSSRFVPPYVVSRSARVHGFFAGKLGNTNLKLKFGNVMESRAGFFSSELPSHGFESGGFTGFQKRGWKSWINGANGVVFGLVIANAAVFTMWRVLGKDNMWMVKNFMLSRYSFMTGRIHTLITSGFSHVGATHIILNMMGLCYFGARIARSFGPRYLLKLYFAGALGGSVFFLSSHALSVISLKGQRVVPKDQLKVPIGKLGANGPVYAITLLDMLLYPKVTTYFGLMLRVPVFAVRESIA
B2: At1g74130 M: 7/8 M-form splice variant of Arabidopsis At1g74130 rhomboid protein (protein, listed as Arabidopsis thaliana)
chain: MHAIFCRRVAVGCSSPQLTKLVTKQASQSRHSLSHLLPFDLSSRFVPPYVVSRSARVHGFFAGKLGNTNLKLKFGNVMESRAGFFSSELPSHGFESGGFTGFQKRGWKSWINGANGVVFGLVIANAAVFTMWRVLGKDNMWMVKNFMLSRYSFMTGRIHTLITSGFSHVGATHIILNMMGLCYFGARIARSFGPRYLLKLYFAGALGGSVFFLSSHALSVISLKGQRVVPKDQLKVPIGKLGANGPVYAITLLDMLLYPKVTTYFGLMLRVPVFAGIYSLGLNIIKMLEVCMMGKTTIP

How the values were obtained:
[1] = system: MDA-MB-231 breast cancer cells; assay: MTT viability assay, sensitization to lapatinib; assay type: cell-based, human; conditions: co-treatment with lapatinib; most prominent at 10 or 15 uM after 48 and 72 hours; 5 or 10 ug protein
Excerpt: Experiments were thus conducted to assess the ability of At1g74130 proteins or variants to enhance the sensitivity of two breast cancer cell lines to the chemotherapeutic drug lapatinib. The breast cancer cell lines selected for these assays were MDA-MB-231 and MDA-MB-468, two cell lines used frequently in cancer research. Any impact on the cells' ability to pump or transport drugs (in and out) may alter the efficacy a chemotherapeutic drug, e.g., by enhancing levels of cell death) or by increasing effectiveness at lower dosage levels. The design of the breast cancer cell assays was similar to that used for bacteria in the above examples, results, and figures. In these studies, the widely used MTT (methyl thiazolyl diphenyl-tetrazolium bromide) viability assay procedure was used to assess any impact exerted by At1g74130 variant S (see, for example, the MTT procedure described by Nagaria, T. S., et al., Flavopiridol synergizes with sorafenib to induce cytotoxicity and potentiate antitumorigenic activity in EGFR/HER-2 and mutant RAS/RAF breast cancer model systems, Neoplasia, 15:939-951, 2013).
Cells were cultured at 37° C. in 96-well plates (10,000 cells in 100 ul media per well) for 24-48 hours to near confluency. […] The assays were then read at 570 nm using a microplate scanning spectrophotometer. […]

E. coli = assay: Colony formation of At1g74130-expressing E. coli on agar with increasing ampicillin; assay type: cell-based, Escherichia coli; conditions: protein expressed in E. coli JM109(DE3) from pET20b; solid agar media; susceptibility at higher concentrations
Method: Introduction and expression of At1g74130 was tested in E. coli, by subcloning the corresponding cDNA sequence into a T7 promoter-containing plasmid vector (pET20b) and JM109(DE3), a bacterial strain commonly used for expressing foreign proteins. Two alternative splice variants of At1g74130 were derived by RT-PCR cloning and tested along with the full version of At1g74130, also derived by RT-PCR cloning (see, e.g., FIGS. 3, 4, and 5). The alternative splice variants designated 6/7 and 7/8 are shown in FIGS. 1C and 1D, respectively. A similar procedure was used to express the At1g25290 and UBAC2 variants (see FIGS. 6, 7, and 8).
Alterations to protein translocation were investigated using the plasmid-borne multicopy gene, β-lactamase. The level of β-lactamase is a sensitive monitor of protein translocation and is translocated into the periplasm, where it detoxifies the antibiotic ampicillin, thereby conferring ampicillin-resistance to cells. Because the level of antibiotic resistance conferred also reflects the level of protein transport activity, the level of ampicillin resistance was determined for At1g74130 expressing cells and compared to that of control vector-containing cells on solid agar media containing increasing concentrations of ampicillin. […]

Pseudomonas aeruginosa = assay: Enhancement of peptide delivery into Pseudomonas aeruginosa; assay type: cell-based; conditions: nine amino acid peptides targeting Type II secretion pseudopilin subunit
Excerpt: With the Pseudomonas assay system described above, it was also possible to assess the ability and the utility of At1g74130 protein variants in the delivery of other peptides into cells. The assays were designed in the same manner as above to determine if peptide delivery can be enhanced or facilitated by rhomboids. The other peptides used were designed to inhibit protein secretion, in this case, lipases. The peptides used in these assays were nine amino acids long and targeted a specific region of one protein subunit of the Type II secretion machinery pseudopilin. The inhibitory actions of this nine amino acid peptide are due to interactions with the target region of the protein subunit. If peptide delivery was facilitated or enhanced by rhomboids, outcomes may be observed by changes in cell/colony growth (Pseudomonas) on the minimal media-olive oil plates. Such changes in growth would reflect changes in lipase secretion, which is needed for breaking down olive oil so that the released carbon can be used for cell growth.
The delivery of the M variant further into the cell releases the impairment and allows growth to resume (i.e., the assay with elution buffer, DMSO, and M). […]

Molecule	increase in level of cell death [1] [%]	ampicillin concentration at which expressing cells form colonies (E. coli) [mg/mL]	peptide delivery into cells (Pseudomonas aeruginosa)
B1	20 to 40	–	–
B2	–	1.5	facilitation and/or enhancement of peptide delivery
